B1: Leukocyte antigen CD37 (Homo sapiens), P11049 (parent)
chain: MSAQESCLSLIKYFLFVFNLFFFVLGSLIFCFGIWILIDKTSFVSFVGLAFVPLQIWSKVLAISGIFTMGIALLGCVGALKELRCLLGLYFGMLLLLFATQITLGILISTQRAQLERSLRDVVEKTIQKYGTNPEETAAEESWDYVQFQLRCCGWHYPQDWFQVLILRGNGSEAHRVPCSCYNLSATNDSTILDKVILPQLSRLGHLARSRHSADICAVPAESHIYREGCAQGLQKWLHNNLISIVGICLGVGLLELGFMTLSIFLCRNLDHVYNRLARYR

Variants of B1 are the subject of one test. The following applies: with lyn_human LYN.
On to Y13F, for which the “effect of a mutation on the interaction” value is “disrupting interaction”.

A further test covers variants of B1. The following applies: with ptn6_human PTPN6, P29350.
Sequence of ptn6_human PTPN6, P29350 (P29350 whole entry): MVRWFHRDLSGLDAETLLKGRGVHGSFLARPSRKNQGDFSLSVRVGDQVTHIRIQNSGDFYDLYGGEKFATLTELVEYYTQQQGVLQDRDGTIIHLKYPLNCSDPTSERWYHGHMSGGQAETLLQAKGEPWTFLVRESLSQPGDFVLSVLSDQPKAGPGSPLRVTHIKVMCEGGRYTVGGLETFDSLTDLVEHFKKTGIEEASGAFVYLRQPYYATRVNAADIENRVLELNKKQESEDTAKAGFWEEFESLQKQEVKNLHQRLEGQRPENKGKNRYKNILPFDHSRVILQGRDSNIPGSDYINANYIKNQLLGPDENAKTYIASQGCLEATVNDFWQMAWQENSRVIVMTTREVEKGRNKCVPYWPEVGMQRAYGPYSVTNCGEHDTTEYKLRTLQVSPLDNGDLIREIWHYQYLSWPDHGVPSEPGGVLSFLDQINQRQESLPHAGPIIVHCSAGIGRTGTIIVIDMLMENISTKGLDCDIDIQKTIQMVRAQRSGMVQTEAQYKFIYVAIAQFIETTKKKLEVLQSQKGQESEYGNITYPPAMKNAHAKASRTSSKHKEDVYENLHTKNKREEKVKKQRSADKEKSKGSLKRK
With Y13F, the “effect of a mutation on the interaction” value was “disrupting interaction”.

For the origin of these results see IntAct's records for PubMed 22624718.
